Assay results reported in patent US20250002570A1 (Innovent, published 2025).

T1: human VEGF C (human, UniProt P49767 103-227, limits assumed)
T1 construct: also called hVEGFC; hVEGF C
T1 sequence (looked up): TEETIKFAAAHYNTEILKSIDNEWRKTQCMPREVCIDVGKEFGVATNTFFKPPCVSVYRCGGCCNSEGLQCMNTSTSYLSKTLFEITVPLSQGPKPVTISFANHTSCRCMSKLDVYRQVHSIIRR


Key:
human VEGF C [1] = target: T1, human VEGF C; assay: ELISA blocking: VEGFC-biotin captured on streptavidin plate; blocked receptor VEGFR2-Fc (0.2 ug/mL), detected with anti-human Fc-HRP, OD450
Protocol: The blocking effects of the antibodies of the present invention on the binding of hVEGFC to a receptor KDR were determined.
(§1) SA (streptavidin) was diluted to 1 μg/mL, and 100 μL/well of SA was plated in a microplate at 4° C. overnight. The plate was washed 3 times with PBST and blocked with 3% BSA for 1.5 h. The plate was washed 3 times with PBST, 50 ng/ml of VEGFC-biotin (biotin-labeled human VEGF C) was added, and the plate was incubated for 1.5 h. 50 μL of antibody was incubated with VEGFR2-Fc (with a final concentration of 0.2 μg/mL, Beijing Sino Biological) or VEGFR3-Fc (with a final concentration of 0.2 μg/mL, Beijing Sino Biological) for 20 min in advance, and the mixture was added to the plate. The plate was washed 3 times with PBST, an anti-human FcHRP antibody (diluted in a ratio of 1:10000, BETHYL) was added, and then the plate was incubated for 30 min. The plate was washed 6 times with PBST, the color development was performed with TMB (SOLARBIO) for 5 min, and OD450 nm was read after stopping.

human VEGF C [2] = target: T1, human VEGF C; assay: BLI (ForteBio), bivalent binding, 30 C
Protocol: (§2) The equilibrium dissociation constant (KD) for binding of the antibodies of the present invention to human VEGF C was determined by bio-layer interferometry (ForteBio). A ForteBio affinity assay of prior art was performed (Estep. P., et al., “High throughput solution Based measurement of antibody-antigen affinity and epitope binning”, MAbs, 2013.5(2): 270-8).
(§3) 100 μL of SD buffer, antibodies, and antigens (human VEGF C, Beijing Sino Biological) were added to a 96-well black polystyrene half-area microplate (Greiner, 675076). The sensors were arranged according to the positions of the samples. The instrument settings were as follows: the operation procedures were Baseline, Loading −1 nm, Baseline, Association, and Dissociation; the run time of each procedure was dependent on the rates of association and dissociation; the rotation speed was 400 rpm, and the temperature was 30° C. The KD values were analyzed by ForteBio analysis software.

human VEGF C [3] = target: T1, human VEGF C; assay: BLI (ForteBio), monovalent binding, 30 C
Protocol: as §2, §3

human VEGF C [4] = target: T1, human VEGF C; assay: BLI (ForteBio), bivalent binding, 30 C; * beyond the ForteBio detection limit
Protocol: as §2, §3

human VEGF C [5] = target: T1, human VEGF C; assay: ELISA blocking: VEGFC-biotin captured on streptavidin plate; blocked receptor VEGFR3-Fc (0.2 ug/mL), detected with anti-human Fc-HRP, OD450
Protocol: as §1

human VEGF C [6] = target: T1, human VEGF C; assay: as above; remark: listed apart in the source
Protocol: as §1

human VEGF C [7] = target: T1, human VEGF C; assay: as above; remark: listed apart in the source
Protocol: as §1

human VEGF C [8] = target: T1, human VEGF C; assay: BLI (ForteBio), bivalent binding, 30 C; * beyond the ForteBio detection limit; bivalent binding, ForteBio; kdis at the detection limit
Protocol: as §2, §3

Row | Molecule | IC50 (human VEGF C [1]) [µg/mL] | Kd (human VEGF C [2]) [nM] | kon (human VEGF C [2]) [M⁻¹ s⁻¹] | Kd (human VEGF C [3]) [nM] | koff (human VEGF C [3]) [s⁻¹] | kon (human VEGF C [3]) [M⁻¹ s⁻¹] | koff (human VEGF C [4]) [s⁻¹] | IC50 (human VEGF C [5]) [µg/mL] | IC50 (human VEGF C [6]) [µg/mL] | IC50 (human VEGF C [7]) [µg/mL] | koff (human VEGF C [8]) [s⁻¹]
1 | OPT-302-His | 0.0118 | – | – | – | – | – | – | – | – | – | –
2 | LA63G12 anti-VEGF C VHH antibody (VHH, The prokaryotic product was purified on Ni Sepharose) VHH: QLQLVESGGGLVQPGGSLRLSCAASGSSFSPYAMGWYRQAPGKQRELVAATTSGGSTLYADSVKGRFTISRDNAKNTVYLQMNSLKPEDTAVYYCYMHWRGSDPENYWGQGTQVTVSS | 0.159 | 0.656 | 305000 | 16.4 | 0.000761 | 46500 | ≤ 0.0002 | 0.342 | 0.371 | 0.125 | –
3 | am63G12-14B11 affinity-matured humanized anti-VEGF C VHH antibody (VHH, also called am63G12.1-14B11) VHH: EVQLVESGGGLVQPGGSLRLSCAASGSSFSPYAMGWYRQAPGKQRELVSATSEGGFTLYADSVKGRFTISRDNSKNTVYLQMNSLRAEDTAVYYCYMHWRGSDPENYWGQGTQVTVSS | – | – | – | 6.21 | 0.000343 | 55300 | – | 0.0191 | – | – | –
4 | LA63G12.1 humanized anti-VEGF C VHH-Fc antibody (Fc fusion, not shown: Fc part (and any hinge or linker) of the dimerized VHH-Fc antibody) EVQLVESGGGLVQPGGSLRLSCAASGSSFSPYAMGWYRQAPGKQRELVSATTSGGSTLYADSVKGRFTISRDNSKNTVYLQMNSLRAEDTAVYYCYMHWRGSDPENYWGQGTQVTVSS | – | ≤ 0.622 | 322000 | – | – | – | ≤ 0.0002 | 0.492 | – | 0.182 | –
5 | LA49G9.2 humanized anti-VEGF C VHH-Fc antibody (Fc fusion, not shown: Fc part (and any hinge or linker) of the dimerized VHH-Fc antibody) EVQLVESGGGLVQPGGSLRLSCAASGSMFSMYAMGWYRQAPGKQRELVAATTSGGSTLYADSVKGRFTISRDNSKNTLYLQMNSLRAEDTAVYYCYTYWRGSDPENYWGQGTQVTVSS | – | ≤ 0.645 | 310000 | – | – | – | ≤ 0.0002 | – | – | – | –

Next, values leading:

Row | IC50 (human VEGF C [1]) [µg/mL] | Kd (human VEGF C [2]) [nM] | kon (human VEGF C [2]) [M⁻¹ s⁻¹] | Kd (human VEGF C [3]) [nM] | koff (human VEGF C [3]) [s⁻¹] | kon (human VEGF C [3]) [M⁻¹ s⁻¹] | koff (human VEGF C [4]) [s⁻¹] | IC50 (human VEGF C [5]) [µg/mL] | IC50 (human VEGF C [6]) [µg/mL] | IC50 (human VEGF C [7]) [µg/mL] | koff (human VEGF C [8]) [s⁻¹] | Molecule
6 | 0.236 | 0.613 | 326000 | 10 | 0.000544 | 54300 | – | 0.151 | 0.352 | 0.0815 | ≤ 0.0002 | LA49G9 anti-VEGF C VHH antibody (VHH, The prokaryotic product was purified on Ni Sepharose) VHH: QLQLVESGGGLVQPGGSLRLSCAASGSMFSMYAMGWYRQAPGKQRELVAATTSGGSTLYADSVKGRFTISRDNAENTVYLQMNSLKPEDTAVYYCYTYWRGSDPENYWGRGTQVTVSS
7 | – | – | – | 5.7 | 0.00036 | 63100 | – | – | – | 0.0215 | – | am63G12-5G8-18B9 affinity-matured humanized anti-VEGF C VHH antibody (VHH, also called Am63G2-5G8-18B9; am63G12.1-5G8-18B9) VHH: EVQLVESGGGLVQPGGSLRLSCAASGSSFSPYAMGWYRQAPGKQRELVSATSSGGFTLYADSVKGRFTISRDNSKNTVYLQMNSLRAEDTAVYYCYTYYREYDPEMYWGQGTQVTVSS
